Results as given in publication PMC12627087, “mRNA delivery of circumsporozoite protein epitope-based malaria vaccines induces protection in a mouse model” (NPJ Vaccines, 2025).

Target: the molecule itself
Experiment: SEC + SEC-MALS + other: negative stain electron microscopy; self-assembly of the protomer into the nanoparticle; Superose 6 10/300 at 0.5 ml/min with DAWN HELEOS II and Optilab T-rEX detectors, glycan mass corrected by protein-conjugate analysis; nsEM at 0.1 mg/ml in HBS, uranyl formate

B1: P8 24mer (other)
chain: NYYGKQENWYSLKKNLSKDIIKLLNEQVNKEMQSSNLYMSMSSWCYTHSLDGAGLFLFDHAAEEYEHAKKLIIFLNENNVPVNLTSISAPEHNFTGLTQIFQKAYEHEQNISESINNITDHAIKSKDHATFNFLQWYVAEQHEEEVLFKDILDKIELIGNENHGLYLADQYVKGIAKSRKS
modifications: glycosylated (engineered glycosylation sites)
notes: Plasmodium falciparum circumsporozoite protein (PfCSP), strain 3D7; Self-assembling ferritin nanoparticle; cloned into pHLsec between the leader and a double stop codon (AgeI/KpnI); source: FreeStyle 293 F cells, transfected, purified (snowdrop lectin agarose, Superose 6 SEC); copies: 24
B1: binds.

B2: C-term MD1 24mer (other)
chain: EPSDNHTKSYYAKIQNSLSTEWSPCSVTCGNGIQVRIKPGSANKPKANLTYANDIEKKICKMEKCGGSLSKDIIKLLNEQVNKEMQSSNLYMSMSSWCYTHSLDGAGLFLFDHAAEEYEHAKKLIIFLNENNVPVNLTSISAPEHNFTGLTQIFQKAYEHEQNISESINNITDHAIKSKDHATFNFLQWYVAEQHEEEVLFKDILDKIELIGNENHGLYLADQYVKGIAKSRKS
modifications: glycosylated (engineered glycosylation sites)
notes: Plasmodium falciparum circumsporozoite protein (PfCSP), strain 3D7; C-terminal αTSR domain, Rosetta-designed variant MD1; linker; Self-assembling ferritin nanoparticle; cloned into pHLsec between the leader and a double stop codon (AgeI/KpnI); also called modified-1 C-term 24mer; MD1 αTSR 24mer; source: FreeStyle 293 F cells, transfected, purified (snowdrop lectin agarose, Superose 6 SEC); …
B2: binds.

B3: C-term WT 24mer (other)
chain: EPSDKHIKEYLNKIQNSLSTEWSPCSVTCGNGIQVRIKPGSANKPKDELDYANDIEKKICKMEKCGGSLSKDIIKLLNEQVNKEMQSSNLYMSMSSWCYTHSLDGAGLFLFDHAAEEYEHAKKLIIFLNENNVPVNLTSISAPEHNFTGLTQIFQKAYEHEQNISESINNITDHAIKSKDHATFNFLQWYVAEQHEEEVLFKDILDKIELIGNENHGLYLADQYVKGIAKSRKS
modifications: glycosylated (engineered glycosylation sites)
notes: Plasmodium falciparum circumsporozoite protein (PfCSP), strain 3D7; wild-type C-terminal αTSR domain, without the C-terminal linker; linker; Self-assembling ferritin nanoparticle; cloned into pHLsec between the leader and a double stop codon (AgeI/KpnI); also called wild-type C-terminal domain on 24mer; WT αTSR 24mer; source: FreeStyle 293 F cells, transfected, purified (snowdrop lectin agarose, …)
B3: binds.

B4: J3 24mer (other)
chain: KLKQPADGNPDPNANPNVDPNANPNVDPNANPNVDPLSKDIIKLLNEQVNKEMQSSNLYMSMSSWCYTHSLDGAGLFLFDHAAEEYEHAKKLIIFLNENNVPVNLTSISAPEHNFTGLTQIFQKAYEHEQNISESINNITDHAIKSKDHATFNFLQWYVAEQHEEEVLFKDILDKIELIGNENHGLYLADQYVKGIAKSRKS
modifications: glycosylated (engineered glycosylation sites)
notes: Plasmodium falciparum circumsporozoite protein (PfCSP), strain 3D7; J3, full-length junctional peptide beginning with Region I; Self-assembling ferritin nanoparticle; cloned into pHLsec between the leader and a double stop codon (AgeI/KpnI); also called peptide J3-24mer; source: FreeStyle 293 F cells, transfected, purified (snowdrop lectin agarose, Superose 6 SEC); copies: 24
B4: binds.

B5: C-term WT 60mer (other)
chain: EPSDKHIKEYLNKIQNSLSTEWSPCSVTCGNGIQVRIKPGSANKPKDELDYANDIEKKICKMEKCGGSMQIYEGKLTAEGLRFGIVASRANHALVDRLVEGAIDAIVRHGGREEDITLVRVCGSWEIPVAAGELARKENISAVIAIGVLCRGATPSFDYIASEVSKGLADLSLELRKPITFGVITADTLEQAIEAAGTCHGNKGWEAALCAIEMANLFKSLRGGSNGTGGSGGSNGT
modifications: glycosylated (engineered glycosylation sites)
notes: Plasmodium falciparum circumsporozoite protein (PfCSP), strain 3D7; wild-type C-terminal αTSR domain, without the C-terminal linker; linker; C-terminal extension with two added glycosylation sites; Self-assembling lumazine synthase nanoparticle; cloned into pHLsec between the leader and a double stop codon (AgeI/KpnI); also called wild-type C-terminal domain on 60mer; WT αTSR 60mer; source: …
B5: binds.

B6: C-term MD1 60mer (other)
chain: EPSDNHTKSYYAKIQNSLSTEWSPCSVTCGNGIQVRIKPGSANKPKANLTYANDIEKKICKMEKCGGSMQIYEGKLTAEGLRFGIVASRANHALVDRLVEGAIDAIVRHGGREEDITLVRVCGSWEIPVAAGELARKENISAVIAIGVLCRGATPSFDYIASEVSKGLADLSLELRKPITFGVITADTLEQAIEAAGTCHGNKGWEAALCAIEMANLFKSLRGGSNGTGGSGGSNGT
modifications: glycosylated (engineered glycosylation sites)
notes: Plasmodium falciparum circumsporozoite protein (PfCSP), strain 3D7; C-terminal αTSR domain, Rosetta-designed variant MD1; linker; C-terminal extension with two added glycosylation sites; Self-assembling lumazine synthase nanoparticle; cloned into pHLsec between the leader and a double stop codon (AgeI/KpnI); also called modified-1 C-term 60mer; MD1 αTSR 60mer; source: FreeStyle 293 F cells, …
B6: binds.

B7: P1 24mer (other)
chain: YGSSSNTRVLNELNYLSKDIIKLLNEQVNKEMQSSNLYMSMSSWCYTHSLDGAGLFLFDHAAEEYEHAKKLIIFLNENNVPVNLTSISAPEHNFTGLTQIFQKAYEHEQNISESINNITDHAIKSKDHATFNFLQWYVAEQHEEEVLFKDILDKIELIGNENHGLYLADQYVKGIAKSRKS
modifications: glycosylated (engineered glycosylation sites)
notes: as for B1
B7: binds.

B8: (NANP)6 60mer (other)
chain: NANPNANPNANPNANPNANPNANPGSGNGTGGSMQIYEGKLTAEGLRFGIVASRANHALVDRLVEGAIDAIVRHGGREEDITLVRVCGSWEIPVAAGELARKENISAVIAIGVLCRGATPSFDYIASEVSKGLADLSLELRKPITFGVITADTLEQAIEAAGTCHGNKGWEAALCAIEMANLFKSLRGGSNGTGGSGGSNGT
modifications: glycosylated (engineered glycosylation sites)
notes: Plasmodium falciparum circumsporozoite protein (PfCSP), strain 3D7; (NANP)6, 24-residue NANP repeat peptide; linker between the peptide and lumazine synthase; C-terminal extension with two added glycosylation sites; Self-assembling lumazine synthase nanoparticle; cloned into pHLsec between the leader and a double stop codon (AgeI/KpnI); also called (NANP)6 peptide 60mer; source: FreeStyle 293 F …
B8: binds.

B9: P1 60mer (other)
chain: YGSSSNTRVLNELNYGSGNGTGGSMQIYEGKLTAEGLRFGIVASRANHALVDRLVEGAIDAIVRHGGREEDITLVRVCGSWEIPVAAGELARKENISAVIAIGVLCRGATPSFDYIASEVSKGLADLSLELRKPITFGVITADTLEQAIEAAGTCHGNKGWEAALCAIEMANLFKSLRGGSNGTGGSGGSNGT
modifications: glycosylated (engineered glycosylation sites)
notes: Plasmodium falciparum circumsporozoite protein (PfCSP), strain 3D7; linker between the peptide and lumazine synthase; C-terminal extension with two added glycosylation sites; Self-assembling lumazine synthase nanoparticle; cloned into pHLsec between the leader and a double stop codon (AgeI/KpnI); source: FreeStyle 293 F cells, transfected, purified (snowdrop lectin agarose, Superose 6 SEC); …
B9: binds.

B10: P9 24mer (other)
chain: KQENWYSLKKNSRSLLSKDIIKLLNEQVNKEMQSSNLYMSMSSWCYTHSLDGAGLFLFDHAAEEYEHAKKLIIFLNENNVPVNLTSISAPEHNFTGLTQIFQKAYEHEQNISESINNITDHAIKSKDHATFNFLQWYVAEQHEEEVLFKDILDKIELIGNENHGLYLADQYVKGIAKSRKS
modifications: glycosylated (engineered glycosylation sites)
notes: as for B1
B10: binds.

B11: P2 60mer (other)
chain: SNTRVLNELNYDNAGGSGNGTGGSMQIYEGKLTAEGLRFGIVASRANHALVDRLVEGAIDAIVRHGGREEDITLVRVCGSWEIPVAAGELARKENISAVIAIGVLCRGATPSFDYIASEVSKGLADLSLELRKPITFGVITADTLEQAIEAAGTCHGNKGWEAALCAIEMANLFKSLRGGSNGTGGSGGSNGT
modifications: glycosylated (engineered glycosylation sites)
notes: as for B9
B11: binds.
